Here are results for five proteins from patent US20230257727.

One series has as its target T1, M15-LAAR.
T1 chain: LAAR

In series [1] the target is Polypeptides with M15-L-labeled P1 residues A, I, L, M, Q, V.
Series [2] deals with M15-L-P1-AR peptides with D or E in the P1 position.
The target of another series is T2, M19-AAAR.
T2 chain: AAAR

A further series concerns the target T3, M19-LAAR.
T3 chain: LAAR

Series [3] deals with T4, Test peptide LMSHNARGAEDDVVRGGGGK linked to a DNA oligo.
T4 chain: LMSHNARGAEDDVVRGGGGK

B1: M15-L_Z001 modified cleavase (Thermomonas hydrothermalis S46 DPP scaffold) (protein)
chain: MHKTRLVAALAAALATLAPAAWADEGMWVPQQLPEIAGALKKAGLKLDPKQLSDLTGDPMGAVVSLGGCTGSFVSPQGLVATNHHCAYGAIQLNSTPEKNLIKDGFNAPTQADELSAGPNARIYVLEGITDVTAQAKAAMAAAGNDPVARANALEAFEKKITSDCEAEPGYRCRVYSFMGGITYRLFKNLEIKDVRLVYAPPSSVGKFGGDIDMGMWPTHTGDFSFYRAYVGKDGKPAPYSKDNVPYRPKHWLKIADTPLGEGDFVMVAGYPGRTDRYALVAEFENTQNWLYPAISKAYKDQIALVEAAAKDNPEIAVKYAAALAGWNRTSKNFDGQLEGFKRNDVLAIKRREEAAVLEWLRARGKAGTPALEAHAALVKLVADTARTQERDLVLGSFNRTGIIGVAVNLYRLAIERQKPDAEREPGYQQRDLPVIEGSLKQMERRYVPAMDRQLRAYWLDRYVALPAAQHVAAVDAWLGGSDKAAAEAALARLDQSRLGSLEERLKWFNADRAAFEASTDPAIQYAVAVMPTLLAMEQQAKTRYGVALEARPRYLQAVVDYKKSKGQAVYPDANSTLRITYGHVKGYTGLNGKVYTPFTTLEEVAAKETGVEPFDNPKALLEAVAAKRYAGLADARLGTVPVNFLADLDITGGNSGSPVLDANGRLVGLAFAGTLESVASNWVFDPVLTRMISVDQRYMRWIMQEVMPAPQLLEELGVPPRQ
For the protein B1, the “cleavage efficiency, time course 5, 10, 20, 30 and 60 minutes” value in the series with M15-LAAR is given as “the M15-L_Z001 cleavase provided better specificity towards the M15-labeled polypeptide”. Besides, in series [1], the cleavage entry was “provided 100% cleavage”.

B2: M15-L_Z002 modified cleavase (Thermomonas hydrothermalis S46 DPP scaffold) (protein)
chain: MHKTRLVAALAAALATLAPAAWADEGMWVPQQLPEIAGALKKAGLKLDPKQLSDLTGDPMGAVVSLGGCTGSFVSPQGLVATNHHCAYGAIQLNSTPEKNLIKDGFNAPTQADELSAGPNARIYVLEGITDVTAQAKAAMAAAGNDPVARANALEAFEKKITSDCEAEPGYRCRVYSFMGGITYRLFKNLEIKDVRLVYAPPSSVGKFGGDIDMGMWPTHTGDFSFYRAYVGKDGKPAPYSKDNVPYRPKHWLKIADTPLGEGDFVMVAGYPGRTDRYALVAEFENTQNWLYPAISKAYKDQIALVEAAAKDNPEIAVKYAAALAGWNRTSKNFDGQLEGFKRNDVLAIKRREEAAVLEWLRARGKAGTPALEAHAALVKLVADTARTQERDLVLGSFNRTGIIGVAVNLYRLAIERQKPDAEREPGYQQRDLPVIEGSLKQMERRYVPAMDRQLRAYWLDRYVALPAAQHVAAVDAWLGGSDKAAAEAALARLDQSRLGSLEERLKWFNADRAAFEASTDPAIQYAVAVMPTLLAMEQQAKTRYGVALEARPRYLQAVVDYKKSKGQAVYPDANSTLRITYGHVKGYTGLNGKVYTPFTTLEEVAAKETGVEPFDNPKALLEAVAAKRYAGLADARLGTVPVNFLADLDITGGNSGSPVLDANGRLVGLAFAGTLESVASNWVFDPVLTRMISVDQRYMRWIMQEVMPAPQLLEELGVPPRQ
Consider B2, for which, in series [2], the cleavage profile entry is “M15-L_Z002, having specificity towards D and E in the P1 position”.

B3: P1 cutter 1 (Thermomonas hydrothermalis S46 DPP scaffold) (protein)
chain: MHKTRLVAALAAALATLAPAAWADEGMWVPQQLPEIAGALKKAGLKLDPKQLSDLTGDPMGAVVSLGGCTGSFVSPQGLVATNHHCAYGAIQLNSTPEKNLIKDGFNAPTQADELSAGPNARIYVLEGITDVTAQAKAAMAAAGNDPVARANALEAFEKKITSDCEAEPGYRCRVYSFMGGITYRLFKNLEIKDVRLVYAPPSSVGKFGGDIDTMMWPKHTGDFSFYRAYVGKDGKPAPYSKDNVPYRPKHWLKIADTPLGEGDFVMVAGYPGRTDRYALVAEFENTQNWLYPAISKAYKDQIALVEAAAKDNPEIAVKYAAALAGWNYTSKNFDGQLEGFKRNDVLAIKRREEAAVLEWLRARGKAGTPALEAHAALVKLVADTARTQERDLVLGSFNRTGIIGVAVNLYRLAIERQKPDAEREPGYQQRDLPVIEGSLKQMERRYVPAMDRQLRAYWLDRYVALPAAQHVAAVDAWLGGSDKAAAEAALARLDQSRLGSLEERLKWFNADRAAFEASTDPAIQYAVAVMPTLLAMEQQAKTRYGVALEARPRYLQAVVDYKKSKGQAVYPDANSTLRITYGHVKGYTGLNGKVYTPFTTLEEVAAKETGVEPFDNPKALLEAVAAKRYAGLADARLGTVPVNFLADLDITGGNSGSPVLDANGRLVGLAFDGTLESVASNWVFDPVLTRMISVDQRYMRWIMQEVMPAPQLLEELGVPPRQ
In the case of B3, in the series with M19-AAAR, the “cleavage, product identified by LC-MS” value is reported as “the observed mass of the cleaved product was 230.2 Da, which matched well with the expected mass for the M19-A (M+H) part (231.2 Da)”.

B4: M19_053 cleavase clone (Thermomonas hydrothermalis S46 DPP scaffold) (protein)
chain: MHKTRLVAALAAALATLAPAAWADEGMWVPQQLPEIAGALKKAGLKLDPKQLSDLTGDPMGAVVSLGGCTGSFVSPQGLVATNHHCAYGAIQLNSTPEKNLIKDGFNAPTQADELSAGPNARIYVLEGITDVTAQAKAAMAAAGNDPVARANALEAFEKKITSDCEAEPGYRCRVYSFMGGITYRLFKNLEIKDVRLVYAPPSSVGKFGGDIDMGMWPTHTGDFSFYRAYVGKDGKPAPYSKDNVPYRPKHWLKIADTPLGEGDFVMVAGYPGRTDRYALVAEFENTQNWLYPAISKAYKDQIALVEAAAKDNPEIAVKYAAALAGWNPTSKNFDGQLEGFKRNDVLAIKRREEAAVLEWLRARGKAGTPALEAHAALVKLVADTARTQERDLVLGSFNRTGIIGVAVNLYRLAIERQKPDAEREPGYQQRDLPVIEGSLKQMERRYVPAMDRQLRAYWLDRYVALPAAQHVAAVDAWLGGSDKAAAEAALARLDQSRLGSLEERLKWFNADRAAFEASTDPAIQYAVAVMPTLLAMEQQAKTRYGVALEARPRYLQAVVDYKKSKGQAVYPDANSTLRITYGHVKGYTGLNGKVYTPFTTLEEVAAKETGVEPFDNPKALLEAVAAKRYAGLADARLGTVPVNFLADLDITGGNSGSPVLDANGRLVGLAFAGTLESVASNWVFDPVLTRMISVDQRYMRWIMQEVMPAPQLLEELGVPPRQ
As for B4, the “cleavage efficiency, time course 5, 10, 20, 30 and 60 minutes” value with M19-LAAR is on record as “the newly selected cleavase clone M19_053 provided better specificity towards the M19-labeled polypeptide”.

B5: Unmodified dipeptidyl aminopeptidase DAP BII (SEQ ID NO: 13) (protein)
chain: GEGMWVPQQLPEIAGPLKKAGLKLSPQQISDLTGDPMGAVVALGGCTASFVSPNGLVVTNHHCAYGAIQLNSTAENNLIKNGFNAPTTADEVSAGPNARVFVLDEITDVTKDAKAAIAAAGDDALARTKALEAFEKKLIADCEAEAGFRCRLYSFSGGNTYRLFKNLEIKDVRLAYAPPGSVGKFGGDIDNWMWPRHTGDFAFYRAYVGKDGKPAAFSKDNVPYQPKHWLKFADQPLGAGDFVMVAGYPGSTNRYALAAEFDNTAQWTYPTIARHYKNQIAMVEAAGKQNADIQVKYAATMAGWNNTSKNYDGQLEGFKRIDAAGQKLREEAAVLGWLKGQGAKGQPALDAHAKLLDLLEQSKATRDRDLTLALFNNTAMLGSATQLYRLSIEREKPNAERESGYQERDLPAIEGGLKQLERRYVAAMDRQLQEYWLNEYIKLPADQRVAAVDAWLGGNDAAAVKRALDRLAGTKLGSTEERLKWFAADRKAFEASNDPAIQYAVAVMPTLLKLEQERKTRAGENLAARPVYLQALADYKKSQGEFVYPDANLSLRITFGNVMGYAPKDGMEYTPFTTLEGVVAKETGQDPFDSPKALLDAVAAKRYGGLEDKRIGSVPVNYLSDLDITGGNSGSPVLDAHGKLVGLAFDGNWESVSSNWVFDPKMTRMIAVDGRYLRWIMQEVYPAPQLLKEMNVGK
Regarding B5, the “cleavage of a peptide-DNA fusion, gel bands at 0, 5, 30, 45, 60 min” value in series [3] was “would continue gradually cleaving the polypeptide, creating multiple bands during the cleavage reaction (FIG. 10)”.
